Measured values taken from patent US20240368233A1 (University of Washington, published 2024).

T1: 202B57
T1 chain: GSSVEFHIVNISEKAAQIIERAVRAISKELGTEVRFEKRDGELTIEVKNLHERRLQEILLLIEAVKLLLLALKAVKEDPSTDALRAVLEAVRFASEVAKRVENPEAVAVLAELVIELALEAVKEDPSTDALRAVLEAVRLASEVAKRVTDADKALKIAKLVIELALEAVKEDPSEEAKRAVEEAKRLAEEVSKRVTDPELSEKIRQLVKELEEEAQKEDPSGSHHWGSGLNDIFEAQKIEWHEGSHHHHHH

T2: LHD206 chainB
T2 construct: also called LHD206B
T2 chain: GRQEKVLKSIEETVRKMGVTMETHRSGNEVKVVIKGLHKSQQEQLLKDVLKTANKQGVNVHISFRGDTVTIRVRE

T3: DF206
T3 construct: Bivalent connector
T3 chain: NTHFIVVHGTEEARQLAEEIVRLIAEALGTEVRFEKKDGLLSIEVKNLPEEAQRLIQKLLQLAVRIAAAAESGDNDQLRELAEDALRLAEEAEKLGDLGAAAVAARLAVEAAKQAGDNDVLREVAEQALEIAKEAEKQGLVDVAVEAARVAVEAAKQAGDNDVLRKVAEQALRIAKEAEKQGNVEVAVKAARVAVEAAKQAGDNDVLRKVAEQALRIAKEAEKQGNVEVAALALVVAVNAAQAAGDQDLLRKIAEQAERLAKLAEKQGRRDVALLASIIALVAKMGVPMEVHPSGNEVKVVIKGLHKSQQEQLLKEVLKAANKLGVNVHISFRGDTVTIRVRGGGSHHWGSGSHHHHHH

T4: DFB0
T4 construct: Bivalent connector
T4 chain: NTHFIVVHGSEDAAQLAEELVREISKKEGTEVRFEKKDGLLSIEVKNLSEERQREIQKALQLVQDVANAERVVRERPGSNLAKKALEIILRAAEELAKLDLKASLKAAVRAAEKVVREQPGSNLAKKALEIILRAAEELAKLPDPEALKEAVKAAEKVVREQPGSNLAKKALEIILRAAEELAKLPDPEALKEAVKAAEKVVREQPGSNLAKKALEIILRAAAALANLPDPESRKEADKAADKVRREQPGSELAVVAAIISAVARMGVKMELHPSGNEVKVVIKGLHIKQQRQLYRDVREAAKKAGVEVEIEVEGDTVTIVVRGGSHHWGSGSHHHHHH

T5: DFB-1
T5 construct: Bivalent connector
T5 chain: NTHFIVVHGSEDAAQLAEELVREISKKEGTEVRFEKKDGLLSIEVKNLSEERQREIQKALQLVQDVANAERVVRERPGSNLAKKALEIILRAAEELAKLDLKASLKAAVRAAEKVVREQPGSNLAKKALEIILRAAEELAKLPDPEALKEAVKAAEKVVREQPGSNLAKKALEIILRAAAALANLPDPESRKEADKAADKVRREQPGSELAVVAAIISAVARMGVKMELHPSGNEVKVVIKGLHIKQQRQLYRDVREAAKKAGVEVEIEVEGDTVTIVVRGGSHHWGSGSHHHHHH

T6: 101B62
T6 construct: also called LHD101B62
T6 chain: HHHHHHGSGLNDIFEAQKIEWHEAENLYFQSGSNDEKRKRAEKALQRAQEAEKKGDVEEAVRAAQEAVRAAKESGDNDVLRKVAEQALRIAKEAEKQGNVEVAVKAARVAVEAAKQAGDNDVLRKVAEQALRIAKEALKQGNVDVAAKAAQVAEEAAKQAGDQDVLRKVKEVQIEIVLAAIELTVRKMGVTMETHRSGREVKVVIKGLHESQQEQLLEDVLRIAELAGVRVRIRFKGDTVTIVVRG

T7: 101B82
T7 chain: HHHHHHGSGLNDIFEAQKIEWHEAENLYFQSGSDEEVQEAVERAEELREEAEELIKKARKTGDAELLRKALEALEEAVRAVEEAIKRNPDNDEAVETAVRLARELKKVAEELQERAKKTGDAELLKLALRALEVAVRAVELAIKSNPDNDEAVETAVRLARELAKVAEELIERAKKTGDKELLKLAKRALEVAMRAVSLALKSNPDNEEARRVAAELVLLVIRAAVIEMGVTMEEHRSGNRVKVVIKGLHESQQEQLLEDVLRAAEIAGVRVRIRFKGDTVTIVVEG

T8: LHD101 B8
T8 single chain, LHD101 chain B fused to DHR8: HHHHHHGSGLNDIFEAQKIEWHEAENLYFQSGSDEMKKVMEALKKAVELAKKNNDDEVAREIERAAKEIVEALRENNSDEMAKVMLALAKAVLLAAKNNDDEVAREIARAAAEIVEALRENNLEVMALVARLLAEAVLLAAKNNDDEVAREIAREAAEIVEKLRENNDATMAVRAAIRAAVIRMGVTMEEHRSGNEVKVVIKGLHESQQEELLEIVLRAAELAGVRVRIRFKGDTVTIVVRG

T9: 101B14
T9 construct: also called LHD101 B14
T9 single chain, LHD101 chain B fused to DHR14: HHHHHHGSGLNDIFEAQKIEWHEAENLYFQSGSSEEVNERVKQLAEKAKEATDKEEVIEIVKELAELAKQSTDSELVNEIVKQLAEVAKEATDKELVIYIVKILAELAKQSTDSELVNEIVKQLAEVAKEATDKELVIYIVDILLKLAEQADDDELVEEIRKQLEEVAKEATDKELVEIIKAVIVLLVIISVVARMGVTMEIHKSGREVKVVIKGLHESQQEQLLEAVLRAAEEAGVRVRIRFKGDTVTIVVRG

T10: DF284B
T10 construct: Bivalent connector
T10 chain: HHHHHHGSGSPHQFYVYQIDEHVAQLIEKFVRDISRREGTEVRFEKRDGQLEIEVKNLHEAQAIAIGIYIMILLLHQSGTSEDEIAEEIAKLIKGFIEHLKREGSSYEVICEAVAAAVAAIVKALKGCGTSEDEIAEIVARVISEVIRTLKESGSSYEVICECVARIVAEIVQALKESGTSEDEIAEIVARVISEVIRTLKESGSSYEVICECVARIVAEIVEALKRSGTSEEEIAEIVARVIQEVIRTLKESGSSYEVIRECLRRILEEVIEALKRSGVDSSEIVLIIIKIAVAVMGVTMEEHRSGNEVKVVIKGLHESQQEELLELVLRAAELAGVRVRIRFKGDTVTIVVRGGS

B1: DF202 (designed binder)
chain: NTHFIVVHGTEEARQLAEEIVRLIAEALGTEVRFEKKDGLLSIEVKNLPEEAQRLIQKLLQLAVRIAQAAKSGDNDQLRELAEDALRLAKEAEKLGDLGAAAVAARLAVEAAKQAGDNDVLRKVAEQALRIAKEAEKQGLVDVAVEAARVAVEAAKQAGDNDVLRKVAEQALRIAKEAEKQGNVEVAVKAARVAVEAAKQAGDNDVLRKVAEQALRIVREALKQGNKEVAKKALEVAIEAANQAGDQKLLAEILLLAIEVLVVEMGVTMETHKSGNKVKVVIKGLHESQQETLRKLVHELLRKLGVVAVTQKHGDTVTIYVTEGGSHHWGSGSHHHHHH
notes: Bivalent connector
B2: LHD206 chainA (designed binder)
chain: TDELLERLRQLFEELHERGTEIVVEVHINGRKTEIEVQGIDKRLLKIILEVIREEIEREGSSEVEVNVHSGGQTWTFNEK
notes: also called LHD206A
B3: DFA0 (designed binder)
chain: TTNFHLINGSEEARQLIEKAVRAISKKEGTEVHFEKSDGTLEIRVKNLHEKREREIKKVIELILEVAAAERIVRERPGSNLAKKALEIILRAAEELAKADVDAALEAAVRAAEKVVREQPGSNLAKKALEIILRAAEELAKLPDPEALKEAVKAAEKVVREQPGSNLAKKALEIILRAAEELAKLPDPEALKEAVKAAEKVVREQPGSNLAKKALEIILRAAAALANLPDPESRKEADKAADKVRREQPGSELAVVAAIISAVARMGVKMELHPSGNEVKVVIKGLHIKQQRQLYRDVREAAKKAGVEVEIEVEGDTVTIVVRGGSHHWGSGSHHHHHH
notes: Bivalent connector
B4: 101A53 (designed binder)
chain: HHHHHHGSGLNDIFEAQKIEWHEAENLYFQSGSNDEKEKLKELLKRAEELAKSPDPEDLKEAVRLAEEVVRERPGSNLAKKALEIILRAAEELAKLPDPEALKEAVKAAEKVVREQPGSNLAKKALEIILRAAAALANLPDPESRKEADKAADKVRREQPGSELAVVAAIISAVARMGVKMELHPSGNEVKVVIKGLHIKQQRQLYRDVREAAKKAGVEVEIEVEGDTVTIVVRG
notes: also called LHD101A53

Assays:
202B57 = target: T1, 202B57; assay: SEC of mixed components; linear tetramer listed in Table 6, neighbours in the chain
Description: (§1) Complexes and individual components were diluted in 20 mM Tris pH 8.0, 100 mM NaCl. After o/n equilibration of the mixtures at room temperature or 4 degrees C., 500 ul of sample was injected onto a Superdex™ 200 10/300 increase GL (dimers, linear assemblies) or Superose™ 6 increase 10/300 GL (symmetric assemblies) (all columns from GE healthcare) using the absorbance at 230 nm or 473 nm (for GFP tagged components) as read-out. Dimers were mixed at monomer concentrations of 5 μM or higher. Trimer and ABCD tetramer mixtures contained 5 μM of the bivalent connector, and 7.5 μM of each terminal cap (lower absolute concentrations with the same ratios were used for some trimers). ABCA tetramer mixtures contained 5 μM per bivalent connector and 15 μM terminal cap. The hexamer mixture contained 3 μM of components C and D, 3.6 μM of B and E, and 4.4 μM of A and F. The branched assembly shown in FIG. 4A contained 2.8 μM of the trivalent connector and 4 μM of each cap. For the exchange experiment shown in FIG. 5A, the ABC trimer was preincubated at concentrations of 6 μM B and 9 μM each of A and C. C′ was then added to reach a final concentration of 2 μM B, 3 μM each of A and C, and 6 μM C′.

DFA0 = target: B3; assay: SEC of mixed components; trimer listed in Table 6
LHD206 chainB [1] = target: T2, LHD206 chainB; assay: BLI, global kinetic fit, 1:1 model
Description: (§2) Biolayer interferometry experiments were performed on an OctetRED96 BLI system (ForteBio, Menlo Park, CA). Streptavidin coated biosensors were first equilibrated for at least 10 minutes in Octet buffer (10 mM HEPES pH 7.4, 150 mM NaCl, 3 mM EDTA, 0.05% Surfactant P20) supplemented with 1 mg/ml Bovine Serum Albumin (SigmaAldrich). Enzymatically biotinylated designs were immobilized onto the biosensors by dipping the biosensors into a solution with 10-50 nM protein for 30-120 s. This was followed by dipping in fresh octet buffer to establish a baseline for 120 s. Titration experiments were performed at 25° C. while rotating at 1,000 r.p.m. Association of designs was allowed by dipping biosensors in solutions containing designed protein diluted in octet buffer until equilibrium was approached followed by dissociation by dipping the biosensors into fresh buffer solution in order to monitor the dissociation kinetics. Steady-state and global kinetic fits were performed using the manufacturer's software (Data Analysis 9.1) assuming a 1:1 binding model.

LHD206 chainB [2] = target: T2, LHD206 chainB; assay: BLI, steady state fit
Description: as §2

DF206 = target: T3, DF206; assay: SEC of mixed components; tetramer (control pentamer) listed in Table 6, neighbours in the chain
Description: as §1

DFB0 = target: T4, DFB0; assay: SEC of mixed components; linear tetramer listed in Table 6, neighbours in the chain
Description: as §1

DFB-1 = target: T5, DFB-1; assay: as above
Description: as §1

DF202 = target: B1; assay: SEC of mixed components; trimer listed in Table 6
[3] = target: the molecule itself; assay: SEC titration of the protomer alone at several injection concentrations (Superdex 200, normalised A230); self-association
101B62 = target: T6, 101B62; assay: SEC binding assay (Superdex 200, normalised A230) of A, B and the mixture AB
101B82 = target: T7, 101B82; assay: as above
LHD101 B8 = target: T8, LHD101 B8; assay: as above
101B14 = target: T9, 101B14; assay: as above
DF284B = target: T10, DF284B; assay: SEC of mixed components; trimer listed in Table 6

B1: binds (202B57); binds (DFA0).

In the case of B2, the Kd (LHD206 chainB [1]) is reported as 2.8 nM, the koff (LHD206 chainB [1]) is reported as 0.00075 s⁻¹ and the kon (LHD206 chainB [1]) is reported as 270000 M⁻¹ s⁻¹. It also gave a Kd (LHD206 chainB [2]) of 8.4 nM.

B3: binds (DF206); binds (DFB0); binds (DFB-1). B3: binds (DF202).

B4: no binding [3]; binds (101B62); binds (101B82). B4: binds (LHD101 B8); binds (101B14); binds (DF284B).
